According to patent US20030114402A1, “Modulators of DNA cytosine-5 methyltransferase and methods for use thereof” (The Regents of the University of California, priority 1997, published 2003):

Columns and labels:
[1] = Jones, 1996; cited from earlier work
[2] = Jones, 1996; cited from earlier work; remark: listed apart in the source
[3] = target: T1, DCMTase (Mus musculus, UniProt P13864); assay: Steady-state kinetic assay: initial velocity, substrate inhibition, DNA length; format: biochemical; conditions: concentrations up to 30 times Km^AdoMet
T1 construct: DCMTase was purified from mouse erythroleukemia cells as previously described; endogenous in cells; host or cells: mouse erythroleukemia (MEL) cells; enzyme purified from them
T1 sequence (P13864 whole entry): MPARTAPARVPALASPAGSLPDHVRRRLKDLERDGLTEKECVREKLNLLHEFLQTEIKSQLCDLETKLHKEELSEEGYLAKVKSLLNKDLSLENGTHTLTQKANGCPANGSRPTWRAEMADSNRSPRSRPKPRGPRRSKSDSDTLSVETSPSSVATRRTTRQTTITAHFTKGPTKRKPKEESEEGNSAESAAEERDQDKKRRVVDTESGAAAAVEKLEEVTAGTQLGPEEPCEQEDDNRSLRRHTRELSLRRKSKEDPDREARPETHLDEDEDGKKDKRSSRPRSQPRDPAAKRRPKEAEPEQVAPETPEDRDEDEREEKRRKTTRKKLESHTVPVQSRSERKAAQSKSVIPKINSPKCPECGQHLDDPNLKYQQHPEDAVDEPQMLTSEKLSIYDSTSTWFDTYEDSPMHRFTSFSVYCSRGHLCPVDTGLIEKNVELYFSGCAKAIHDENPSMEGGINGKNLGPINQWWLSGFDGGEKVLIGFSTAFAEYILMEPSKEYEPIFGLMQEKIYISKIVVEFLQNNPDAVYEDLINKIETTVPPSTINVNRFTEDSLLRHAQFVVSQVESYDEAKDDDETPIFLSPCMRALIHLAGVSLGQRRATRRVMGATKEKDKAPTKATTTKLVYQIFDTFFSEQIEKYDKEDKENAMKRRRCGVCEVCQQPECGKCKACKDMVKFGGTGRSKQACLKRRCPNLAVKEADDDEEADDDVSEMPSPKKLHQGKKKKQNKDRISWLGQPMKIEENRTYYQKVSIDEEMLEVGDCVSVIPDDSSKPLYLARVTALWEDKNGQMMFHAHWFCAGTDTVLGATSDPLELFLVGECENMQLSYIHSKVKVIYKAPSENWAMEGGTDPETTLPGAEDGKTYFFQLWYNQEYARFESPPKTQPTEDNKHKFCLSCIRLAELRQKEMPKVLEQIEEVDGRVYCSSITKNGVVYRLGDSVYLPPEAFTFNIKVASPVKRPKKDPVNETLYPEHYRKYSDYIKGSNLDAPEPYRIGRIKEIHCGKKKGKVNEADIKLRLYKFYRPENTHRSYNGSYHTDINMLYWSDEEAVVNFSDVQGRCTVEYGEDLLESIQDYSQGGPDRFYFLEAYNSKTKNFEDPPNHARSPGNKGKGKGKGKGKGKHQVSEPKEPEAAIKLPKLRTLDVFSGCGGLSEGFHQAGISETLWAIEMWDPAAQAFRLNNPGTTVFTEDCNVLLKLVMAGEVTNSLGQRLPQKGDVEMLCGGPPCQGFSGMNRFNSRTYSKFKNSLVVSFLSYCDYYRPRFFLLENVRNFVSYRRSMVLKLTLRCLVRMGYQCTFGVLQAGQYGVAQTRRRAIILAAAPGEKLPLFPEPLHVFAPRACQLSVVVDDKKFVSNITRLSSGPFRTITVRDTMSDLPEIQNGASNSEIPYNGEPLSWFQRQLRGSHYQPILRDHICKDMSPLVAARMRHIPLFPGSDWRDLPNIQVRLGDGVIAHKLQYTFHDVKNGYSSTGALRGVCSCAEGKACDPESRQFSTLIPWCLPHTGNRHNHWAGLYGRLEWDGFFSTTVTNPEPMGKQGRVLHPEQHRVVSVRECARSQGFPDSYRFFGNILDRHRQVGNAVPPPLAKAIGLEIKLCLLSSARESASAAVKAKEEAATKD
Protocol: After preincubation at room temperature for up to 10 minutes, reactions were initiated by the addition of poly(dI.dC:dI.dC) and, if indicated, inhibitor DNA or reaction products. […] Single-stranded DNA was heated to 90° C. and quick cooled on ice, prior to initiation of the reaction. Freeze-thawed DNA produced equivalent results. Incubations were at 37° C. for 60 minutes. The poly(dI.dC:dI.dC) concentrations were 2.0, 4.0, 8.0, 16, 35, 80, 160, 250, 400, 700 and 1000 pM. In some experiments, GC-box a/b was the substrate, using 100 nM DCMTase and DNA concentrations of 0.20, 0.40, 1.0, 2.0, 4.0, 8.0, 15, 23 and 35 μM. […] The radioactivity above the background, determined from assays without added poly(dI.dC:dI.dC), was converted to initial velocities and expressed as picomoles of methyl groups transferred to poly(dI.dC:dI.dC) per hour and plotted in double reciprocal form. […]
The Michaelis-Menton equation was used for studies into DNA length contributions to catalysis using KaliedaGraph 2.1.2 (Synergy Software). […] All steady-state data were analyzed using regression analyses of the appropriate initial velocity equation, listed below, using the Cleland programs (Cleland, W. W., 1979, Statistical analysis of enzyme kinetic data. Methods in Enzymol. 63:103-138). […]

[4] = target: T2, DNA cytosine-5 methyltransferase (DCMTase, Dnmt1) (Mus musculus, UniProt P13864 P13864:1-1620); assay: inhibition; substrate inhibition; KmDNA 0.31 +/- 0.13 µM; conditions: tags: none; purified from mouse erythroleukemia (MEL) cells; label: 32P (gel shift)
T2 sequence (P13864 whole entry, one chain of several): as the sequence (P13864 whole entry) above
Protocol: To distinguish between this and alternative explanations, a short 30 base-pair DNA substrate was tested for inhibition at high concentrations. […] Initial velocity data for both substrates were fit to equation 1, which is a standard equation for analyzing substrate inhibition. Kₘ^DNA was determined to be 5.5+/−0.9 pM and 0.31+/−0.13 μM, and Kᵢ^DNA was 1010+/−170 pM and 43+/−22 μM for poly(dI.dC:dI.dC) and GC-box a/b, respectively (Table 3). In both cases, DNA concentrations greater than 20 times Kₘ^DNA caused substrate inhibition. AdoMet utilization was calculated to be less than 0.5%. Product inhibition by S-adenosyl homocysteine formation is therefore unlikely. AdoMet substrate inhibition was not observed at concentrations up to 30 times Kₘ^AdoMet. The substrate inhibition observed implicates a second DNA molecule binding to the enzyme and inhibiting catalysis.

[5] = target: T2, DNA cytosine-5 methyltransferase …; assay: EMSA; unit printed as mM (text indicates micromolar); Hepes pH 7.4, 10 mM EDTA, on ice; conditions: tags: none; purified from mouse erythroleukemia (MEL) cells; label: 32P (gel shift)
Protocol: (§1) Gel mobility shift assays (GMSA) were performed with minor revisions to the original procedures (Fried, M., & Crothers, D. M., 1981, Equilibria and kinetics of the lac repressor-operator interactions by polyacrylamide gel electrophoresis, Nucleic Acids Res. 9:6505-6525; Garner, M. M. & Revzin, A., 1981, A gel electrophoresis method for quantifying the binding proteins to specific DNA regions: applications to components of the Escherichia coli lactose operon regulatory system, Nucleic Acids Res. 13:3047-3060). […]
(§2) Steady-state kinetic analyses of the DCMTase with the same 30 base-pair DNA substrates used in these studies indicate that Kₘ^DNA is 1000- to 50,000-fold higher (Flynn, J., et al., 1996, Murine DNA cytosine-C5 methyltransferase: Pre-steady- and steady-state kinetic analyses with regulatory DNA sequences, Biochemistry 35:7308-7315) than the DNA concentrations used to generate FIG. 2 and used by Reale et al, 1995, supra. […] Therefore, the stability of protein:DNA was determined by keeping the enzyme at a constant concentration (100 nM) and varying the amount of added DNA (Dubey & Roberts, 1992, supra).

[6] = target: T2, DNA cytosine-5 methyltransferase …; assay: inhibition; Kii, uncompetitive with poly(dIdC:dIdC); 25 +/- 10 nM competitive with AdoMet; calculated KI 2.5 nM for DCMTase:poly(dIdC:dIdC) complex; Tris pH 8.0, 10 mM EDTA; conditions: tags: none; purified from mouse erythroleukemia (MEL) cells
[7] = target: T2, DNA cytosine-5 methyltransferase …; assay: EMSA; unit printed as mM (text indicates micromolar); free enzyme; conditions: tags: none; purified from mouse erythroleukemia (MEL) cells
Protocol: as §1, §2

[8] = target: T2, DNA cytosine-5 methyltransferase …; assay: inhibition; Kis, noncompetitive with poly(dIdC:dIdC); Kii 6800 +/- 1200 nM; Tris pH 8.0, 37 C; conditions: tags: none; purified from mouse erythroleukemia (MEL) cells
Protocol: For these reasons it was presumed that single-stranded GC-box substrates could act as dead-end inhibitors of the reaction with poly(dI.dC:dI.dC). Dead-end inhibitors can provide a strong methodology for assessing whether a kinetic mechanism is random or ordered. Inhibition of poly(dI.dC:dI.dC) methylation by single-stranded GC-box b was studied at 15 μM AdoMet. The data were best fit by equation 5, a standard equation for noncompetitive inhibition, and generated the intersecting double reciprocal pattern shown in FIG. 13. The inhibition constants were determined to be Kᵢₛ=3.6+/−1.5 μM and Kᵢᵢ=6.8+/−1.2 μM (Table 4). Kᵢᵢ is the inhibition constant associated with an intercept effect and Kᵢₛ is the inhibition constant associated with a slope effect from families of double reciprocal plots.

[9] = target: T2, DNA cytosine-5 methyltransferase …; assay: EMSA; unit printed as mM (text indicates micromolar); conditions: tags: none; purified from mouse erythroleukemia (MEL) cells
Protocol: Gel mobility shift assays (GMSA) were performed with minor revisions to the original procedures (Fried, M., & Crothers, D. M., 1981, Equilibria and kinetics of the lac repressor-operator interactions by polyacrylamide gel electrophoresis, Nucleic Acids Res. 9:6505-6525; Garner, M. M. & Revzin, A., 1981, A gel electrophoresis method for quantifying the binding proteins to specific DNA regions: applications to components of the Escherichia coli lactose operon regulatory system, Nucleic Acids Res. 13:3047-3060). All reactions were done in 100 mM Hepes pH 7.4, 10 mM EDTA, 10 mM DTT, […], 5% glycerol using the indicated P-labeled DNA and DCMTase concentrations, incubated on ice for 5 minutes and loaded on a 1×TBE(89 mM Tris-HCl pH 8.3, 89 mM boric acid, 2 mM EDTA), 6% polyacrylamide gel. Electrophoresis was done at 250 V, 9 mA for 2 hours at 4° C. and the dried gel was exposed to film overnight. The reaction conditions for buffer, temperature, incubation time, cofactor addition and gel composition have all been optimized. Only slightly better complex resolution was obtained under the listed conditions compared to a 10 minute incubation at 37° C. prior to gel loading at room temperature and containing either cofactor S-adenosyl-L-methionine, product S-adenosyl-L-homocysteine, or the AdoMet analog sinefungin. Hepes reaction buffer at pH 7.4 produced sharper banding than Tris-HCl at pH 8.0. […] Subsequent assays used a limiting and constant enzyme concentration with varying DNA concentrations.
as §2

Nc1ncn([C@H]2C[C@H](O)[C@@H](CO)O2)c(=O)n1 [5-Aza-deoxycytidine, 5-aza-2′-deoxycytidine]
stability in solution [1]: unstable in solution
carcinogenicity and mutagenicity [2]: may be carcinogenic as well as mutagenic

C[S+](CC[C@H](N)C(=O)[O-])C[C@H]1O[C@@H](n2cnc3c(N)ncnc32)[C@H](O)[C@@H]1O (stereo partly drawn) [AdoMet, S-adenosyl-L-methionine]
AdoMet substrate inhibition [3]: not observed

B1: GC-box a/b (dsDNA)
DNA 1: GGGAATTCAAGGGGCGGGGCAAGGATCCAG
DNA 2: CTGGATCCTTGCCCCGCCCCTTGAATTCCC
Ki [4]: 43000 nM
Kd [5]: 420 nM

CTGGATCCTTGCCCCGCCCCTTGAATTCCC (ssDNA, 5mC at position 15 (central CpG)) [GC-box bMET]
Ki [6]: 20 nM
Kd [7]: 880 nM

CTGGATCCTTGCCCCGCCCCTTGAATTCCC (ssDNA) [GC-box b]
Ki [8]: 3600 nM
Kd [9]: 1300 nM
